Assay results taken from patent publication US20240101652A1 (SINGH BIOTECHNOLOGY, published 2024).
Values joined by “and” are separate entries in the source; they are usually repeats but may differ in a detail not shown here. Equal values may be shown once. Values belong to the binder of their own block, whether it stands above or below them.

How the values were obtained:
[1] = target: T1, Human STAT3 Protein (recombinant) (human, UniProt P40763 1-770); test: SPR, Biacore 3000
T1 construct: also called recombinant STAT3

[2] = target: STAT3 (endogenous, in human cells and from lysed cancer cell lines) (human, UniProt P40763 2-770); test: cell-based or functional assay

- binding result [1]: no binding
B1: Anti-KRAS VHH (SBT-102 (SEQ ID NO: 2)) (VHH)
VHH: EVQLVESGGGSVQTGGSLRLSCAVSGNIGSSYCMGWFRQAPGKKREAVARIVRDGATGYADYVKGRFTISRDSAKNTLYLQMNRLIPEDTAIYYCAADLPPGCLTQAIWNFGYRGQGTLVTVSS

- IC50, STAT3 luciferase reporter assay in HEK 293 cells after IL-6 stimulation [2]: 2.68 µg/mL and 0.18 µM
B2: Anti-KRAS/Anti-STAT3 VHH (SBT-100 (SEQ ID NO: 1)) (VHH)
VHH: HVQLVESGGGSVQAGGSLRLSCAASGANGGRSCMGWFRQVPGKEREGVSGISTGGLITYYADSVKGRFTISQDNTKNTLYLQMNSLKPEDTAMYYCATSRFDCYRGSWFNRYMYNSWGQGTQVTVSS
